Tested on: MBP-rAtCHE (Arabidopsis thaliana (homoeolog cloned from resynthesized A. thaliana x A. arenosa allotetraploid))
Experiment: EMSA
Conditions: reference for normalization; 25 mM HEPES pH 7.5, 2.5 mM DTT, 75 mM KCl, 10% glycerol, 1.25 ng poly-dIdC, 10 nM (~15 fmol) DNA, on ice 20 min; 5% native PAGE

Which binding signal (fold (reference for rAaCHE)) does the source give for AtCCA1p here?
The binding signal (fold (reference for rAaCHE)) was 1.

— article PMC5366859
